# Test results as given in patent US20170137513A1.
# T1: monkey CD22 (Rhesus monkey) (UniProt H9G1X2)
# T1 sequence: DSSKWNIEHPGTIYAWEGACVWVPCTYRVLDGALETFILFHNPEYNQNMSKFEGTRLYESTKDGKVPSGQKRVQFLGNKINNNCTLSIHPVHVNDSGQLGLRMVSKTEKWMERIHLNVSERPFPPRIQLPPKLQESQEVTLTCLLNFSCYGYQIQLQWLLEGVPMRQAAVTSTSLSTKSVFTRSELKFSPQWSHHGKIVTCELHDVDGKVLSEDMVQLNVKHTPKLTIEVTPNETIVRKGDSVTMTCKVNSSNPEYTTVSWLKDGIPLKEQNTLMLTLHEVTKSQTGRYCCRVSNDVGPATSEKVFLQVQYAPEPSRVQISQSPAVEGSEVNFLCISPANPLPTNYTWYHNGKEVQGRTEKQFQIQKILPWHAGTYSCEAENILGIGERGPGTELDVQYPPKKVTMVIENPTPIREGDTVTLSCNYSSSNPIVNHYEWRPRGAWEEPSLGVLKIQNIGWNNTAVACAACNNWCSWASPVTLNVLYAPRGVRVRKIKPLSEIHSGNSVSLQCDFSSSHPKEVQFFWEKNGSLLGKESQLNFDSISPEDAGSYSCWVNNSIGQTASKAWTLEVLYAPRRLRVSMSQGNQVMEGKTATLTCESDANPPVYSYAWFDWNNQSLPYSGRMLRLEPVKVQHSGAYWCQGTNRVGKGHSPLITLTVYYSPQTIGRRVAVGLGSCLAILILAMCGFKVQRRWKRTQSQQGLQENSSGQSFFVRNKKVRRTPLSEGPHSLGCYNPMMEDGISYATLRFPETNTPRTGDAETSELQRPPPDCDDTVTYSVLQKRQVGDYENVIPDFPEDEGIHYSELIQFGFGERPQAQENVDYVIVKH
# B1: RFB4 monoclonal antibody (antibody, V domains shown)
# VH: EVQLVESGGGLVKPGGSLKLSCAASGFAFSIYDMSWVRQTPEKRLEWVAYISSGGGTTYYPDTVKGRFTISRDNAKNTLYLQMSSLKSEDTAMYYCARHSGYGSSYGVLFAYWGQGTLVTVSA
# VL: DIQMTQTTSSLSASLGDRVTISCRASQDISNYLNWYQQKPDGTVKLLIYYTSILHSGVPSRFSGSGSGTDYSLTISNLEQEDFATYFCQQGNTLPWTFGGGTKLEIK
# Target: T1, monkey CD22 (Rhesus monkey)
# Assay: flow cytometry, direct immunofluorescence on Rhesus monkey PBMC
binder,measurement,value
B1,percent positive cells,31.3%
